Target: Lhr (archaeal Lhr, Mth1802) (Methanothermobacter thermautotrophicus …, UniProt O27830 1-862)
Experiment: EMSA; no ATP; 100 nM Lhr, 10 nM DNA; EMSA: buffer HB (20 mM Tris-HCl pH 7.5, 2 mM DTT, 100 µg/ml BSA, 7% glycerol), room temperature, 10 nM DNA, 100 nM Lhr, +/- ATP and MgCl2, 5% acrylamide TBE gel; smFRET: 1 µM Lhr, RT or 45°C
Details: protein: recombinant; tags: none stated (pET22b via NdeI/EcoRI, pEB352; no tag purification); label: ATTO 532 (green); partial fork 1:3 parental 24 bp, 3:4 leading arm 25 bp; S18[1-26] single-stranded; 1 nt 5' overhang on S20

Sequence of Lhr (archaeal Lhr, Mth1802) (O27830 whole entry): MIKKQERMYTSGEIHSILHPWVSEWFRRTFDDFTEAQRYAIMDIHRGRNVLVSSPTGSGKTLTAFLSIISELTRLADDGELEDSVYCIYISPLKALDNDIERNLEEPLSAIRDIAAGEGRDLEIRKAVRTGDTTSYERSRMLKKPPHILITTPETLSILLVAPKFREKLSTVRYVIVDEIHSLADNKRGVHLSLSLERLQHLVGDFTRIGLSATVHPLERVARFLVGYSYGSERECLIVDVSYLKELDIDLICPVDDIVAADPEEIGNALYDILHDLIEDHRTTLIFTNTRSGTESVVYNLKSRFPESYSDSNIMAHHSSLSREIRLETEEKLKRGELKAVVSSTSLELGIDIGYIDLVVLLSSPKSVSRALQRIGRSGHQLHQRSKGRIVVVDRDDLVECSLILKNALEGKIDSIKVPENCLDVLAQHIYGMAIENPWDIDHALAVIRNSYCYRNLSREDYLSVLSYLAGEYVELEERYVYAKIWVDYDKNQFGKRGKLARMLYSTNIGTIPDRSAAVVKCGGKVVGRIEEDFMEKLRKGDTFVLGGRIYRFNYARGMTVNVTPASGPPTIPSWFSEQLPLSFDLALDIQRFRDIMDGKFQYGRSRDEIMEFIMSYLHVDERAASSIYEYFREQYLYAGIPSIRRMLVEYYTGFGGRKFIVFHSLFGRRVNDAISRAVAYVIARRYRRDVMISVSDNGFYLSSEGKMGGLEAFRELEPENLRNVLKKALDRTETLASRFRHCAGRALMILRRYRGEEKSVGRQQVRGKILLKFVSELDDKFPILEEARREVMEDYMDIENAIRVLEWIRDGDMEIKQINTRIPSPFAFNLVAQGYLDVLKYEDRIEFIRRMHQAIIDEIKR

B1: partial fork-2 lacking the red lagging strand (dsDNA)
DNA 1: ATCGATAGTCTCTAGACAGTATGTCCTAGCAAGCCAGAATTCGGCAGCGT
DNA 2: GACGCTGCCGAATTCTGGCTTGCTATGTAAATCTTTGCCCACGTTGACCC
DNA 3: GGGTCAACGTGGGCAAAGATTTACA
modifications: 5' biotin on S18
B1: binds.

— publication PMC7437997, “Mechanistic insights into Lhr helicase function in DNA repair”
